According to publication PMC4587768:

Key:
[1] = biological target: BG505 SOSIP-sCD4 complex (HIV-1 (strain BG505) | human) (UniProt Q2N0S6); test: cryo-EM structure
[2] = biological target: BG505 SOSIP-sCD4 complex (HIV-1 (strain BG505) | human) (UniProt Q2N0S6); test: negative-stain single-particle EM
[3] = biological target: BG505 SOSIP.664 soluble HIV-1 Env trimer (HIV-1 (strain BG505)) (UniProt Q2N0S6); test: cryo-EM structure
[4] = biological target: BG505 SOSIP.664 soluble HIV-1 Env trimer (HIV-1 (strain BG505)) (UniProt Q2N0S6); test: negative-stain single-particle EM

Substance: 17b Fab (CD4-induced antibody)
- stoichiometry N (Fabs per trimer) [1]: 3
- stoichiometry N (copies per trimer) [2]: 3

Substance: sCD4 (CD4 domains 1 and 2) (domain or fragment)
- stoichiometry N (sCD4 per trimer) [3]: 3
- stoichiometry N (copies per trimer) [4]: 3
